Results: publication PMC4559223
Where two headings read alike, the source gives them in different places.

B1: ADJ DNA (crystal) (dsDNA)
DNA 1: TTCTGATAAGACTTATCTGC
DNA 2: AAGCAGATAAGTCTTATCAG
B2: OPP DNA (crystal) (dsDNA)
DNA 1: TTGATAAATCAGAGATAACC
DNA 2: AAGGTTATCTCTGATTTATC

Columns and labels:
GATA3 C-finger [1] = molecular target: T1, GATA3 C-finger (mouse, UniProt P23772 308-370); assay: X-ray crystallography
GATA3 C-finger [2] = molecular target: T1, GATA3 C-finger; assay: X-ray crystallography; remark: listed apart in the source

T1 sequence (P23772 308-370): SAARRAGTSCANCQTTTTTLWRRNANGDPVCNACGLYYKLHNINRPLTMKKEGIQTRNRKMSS

Binder	binding result (GATA3 C-finger [1])	binding result (GATA3 C-finger [2])
B1	binds	–
B2	–	binds
